Reference: patent publication US20050124794A1, “Cell surface tropomyosin as a target of angiogenesis inhibition” (priority 2002, published 2005)
Several values for one entry are separate records, joined by “and”; a condition that tells them apart may be missing. Equal entries are not always repeated. Entries after “also recorded” stand apart in the source; their conditions may differ.

Assays:
[1] = biological target: T1, chicken gizzard Tpm (Gallus gallus, UniProt P19352); assay: Binding of HKa to purified Tpm immobilized in 96 well microplates; settings: biotin-HKa, Zn2+-dependent (10 μM Zn2+), nonlinear regression; read-out: Kd of binding of HKa to purified Tpm
T1 construct: purchased Sigma; host or cells: chicken gizzard (tissue-derived, as the name says)
T1 sequence (P19352 1-284 isoform P19352-2): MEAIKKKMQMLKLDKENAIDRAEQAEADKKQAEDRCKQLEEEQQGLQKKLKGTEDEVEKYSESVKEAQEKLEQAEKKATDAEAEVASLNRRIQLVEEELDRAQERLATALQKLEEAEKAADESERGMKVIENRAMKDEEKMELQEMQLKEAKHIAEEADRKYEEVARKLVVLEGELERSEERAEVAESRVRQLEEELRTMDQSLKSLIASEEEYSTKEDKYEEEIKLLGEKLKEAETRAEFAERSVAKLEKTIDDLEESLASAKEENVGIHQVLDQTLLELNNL
T1 sequence (P04268 1-284 isoform P04268-2 F73S/I172L/T199L/N203E/L204A partner): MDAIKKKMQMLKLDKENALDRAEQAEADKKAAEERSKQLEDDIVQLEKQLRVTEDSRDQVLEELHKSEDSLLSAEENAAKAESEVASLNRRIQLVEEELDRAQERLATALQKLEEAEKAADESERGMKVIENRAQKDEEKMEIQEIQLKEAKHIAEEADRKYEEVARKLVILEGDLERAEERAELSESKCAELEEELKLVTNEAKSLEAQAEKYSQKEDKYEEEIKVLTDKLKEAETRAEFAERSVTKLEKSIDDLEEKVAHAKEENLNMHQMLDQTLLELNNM
Method: To measure the binding of HKa to purified Tpm, 96 well microplates were coated with 20 μg/ml of chicken gizzard Tpm (Sigma), or bovine serum albumin (BSA), as a control. Wells were then blocked by incubation with phosphate buffered saline containing 5% nonfat milk, and incubated with increasing concentrations of HKa (0.01-20 nM) for 2 hours. Specifically-bound HKa was quantitated as described for cell binding assays (van Iwaarden et al., supra, and by assessing the ability of a 100-fold molar excess of unlabeled HKa to compete with biotin-HKa for binding.
In selected experiments, the ability of mAb TM-311 and recombinant HKa D5 to inhibit the binding of biotin-HKa to Tpm was assessed. These studies allowed determination of the Kd for binding of HKa D5 to Tpm using the equation: Kd (D5)=IC50/(1+[HKa]/Kd (HKa)) where IC50 is the concentration of HKa D5 that inhibited HKa binding by 50%, and Kd(HKa) is the Kd for binding of HKa to Tpm.

[2] = tested on: proliferating ECs; assay: Binding of biotin-HKa to ECs; design: species or system human; settings: Zn2+-dependent (10 μM Zn2+), nonlinear regression, read-out: Kd of specific binding of HKa to proliferating ECs
Method: Binding of HKa to ECs and purified Tpm. Binding of HKa to ECs was measured as described by Hasan, A A et al. (1995) J. Biol. Chem. 270:19256-19261. Briefly, 3×10^4 HLVEC/ml were cultured in 96-well microplates, then washed and incubated with increasing concentrations of biotin-HKa for two hours, at 4° C. After brief washing, cells were incubated sequentially with a 1:750 dilution of streptavidin peroxidase and the peroxidase substrate, turbo-TMB (Pierce), prior to measurement of A490. Absolute amounts of bound HKa were determined by comparison of A490 values with a standard curve prepared using known amounts of biotin-HKa Binding was measured in the presence (to determine total binding) and absence (to determine non-specific binding) of 10 μM Zn^2+, and specific binding defined as the difference between total and non-specific binding (van Iwaarden, F et al. (1988) J. Biol. Chem. 263:4698-4703). The dissociation constant (Kd) was determined by fitting the saturation isotherm by nonlinear regression using the Prism software program (GraphPad, San Diego, Calif.).
In selected experiments, the ability of mAb TM-311 to inhibit the binding of HKa to cells was assessed by incubating biotin-HKa with ECs in the presence of increasing concentrations of antibody. […]

[3] = tested on: bFGF-induced angiogenesis in the chick chorioallantoic membrane; assay: Chick chorioallantoic membrane (CAM) assay; type: in vivo
Method: This assay is performed essentially as described by Nguyen et al (Microvascular Res. 47:31-40 (1994)). A mesh containing either angiogenic factors (bFGF) or tumor cells plus inhibitors is placed onto the CAM of an 8-day old chick embryo and the CAM observed for 3-9 days after implantation of the sample. Angiogenesis is quantitated by determining the percentage of squares in the mesh which contain blood vessels.
Chick chorioallantoic membrane assay. […] Three day-old fertilized White Leghorn chicken eggs were cracked in sterile Petri dishes. Embryos were cultured at 37° C., under 4% CO2, until day 7, at which time a 3.0 mm filter disc containing either 30 ng bFGF (positive control), 30 ng bFGF and 10 μg HKa or 30 ng bFGF, 10 μg HKa and 20 μg of mAb TM-311 was placed on the CAM. Each experimental condition was tested in at least 6 eggs. On day 10, embryos were photographed using a SPOT digital camera Angiogenesis was quantitated by counting the number of neovessels in direct contact with the filter disc.

[4] = biological target: T1, chicken gizzard Tpm; assay: Binding to immobilized Tpm in a 96 well plate (biotin-HKa competition or direct binding); settings: plate coated with 200 ng chicken gizzard Tpm, 10 μM ZnCl2
Method: Plates are coated at room temperature with chicken gizzard Tpm (Sigma) in Tris buffer-saline (TBS) (200 ng/well). After incubation for 2 hours, wells are washed with TBS, then 1% BSA/TBS/Tween-20 is added to each well and incubate at 37° C. for two hours. HKa (Enzyme Laboratories) that had been previously biotinylated with EZ-Link (Pierce) according to the manufacturers instructions, is added to the plate at a concentration of 10 nM together with ZnCl2 (10 μM) and the appropriate concentration of the protein, domain or peptide competitor. The plates are incubated at room temperature and then washed with TBS/Tween-20. Avidin-HRP is added, incubated for 20 minutes at room temperature, washed with TBS/Tween-20 and the chromogenic substrate is added. The reaction is stopped with sulfuric acid and the plate read at 490 nm.
The IC50 for the displacement of biotinylated-HKa for the peptides shown in Table 5 was determined as follows: 10 nM biotin-HKa is added to a 96 well plate previously coated with 200 ng of chicken gizzard Tpm in the presence of 10 μM ZnCl2. Increasing amounts of the peptides are added to the wells. The remaining biotin-HKa bound to Tpm was detected using avidin-HRP and a chromogenic substrate. A Kd was determined by non-linear regression analysis of the empirical data. The effect on the Matrigel Plug assay was determined as follows: Matrigel (0.5 mL) containing 400 ng/ml of bFGF, 50 μg/ml heparin with or without the peptide (300 μM) or saline buffer are injected in the flanks of a mouse. After five days, the plugs are removed and the plugs scanned.
The N-terminus of the pentapeptide HHPHG has been derivatized (capped) in an attempt to increase the pentapeptides' affinity to Tpm by increasing productive molecular contacts (or interactions). […] The IC50 for the displacement of biotinylated-HKa for the capped peptides shown in the table was determined as follows: 10 nM biotin-HKa was added to a 96 well plate previously coated with 200 ng of chicken gizzard Tpm in the presence of 10 μM ZnCl2. Increasing amounts of the peptides were added to the wells. The remaining biotin-HKa bound to Tpm was detected using avidin-HRP and a chromogenic substrate. A Kd was determined by non-linear regression analysis of the empirical data

[5] = tested on: HUVEC; assay: EC proliferation assay (growth factor-induced); type: cell-based, human; settings: bFGF 10 ng/ml; 20 nM HKa, 60 nM HKa domain 5
Method: EC proliferation assays. The effect of HKa on ECs in the absence or presence of mAb TM-311 was initially assessed using a proliferation assay, as described in Zhang et al., supra. Relative numbers of cells remaining in each well of a 96 well microplate after incubation for 48 hours in the absence or presence of HKa were determined using the Aqueous® cell proliferation assay (Promega, Madison, Wis.). Results are presented as the percent inhibition of bFGF-induced EC proliferation, which essentially reflects the extent of HKa-induced EC apoptosis. Though bFGF was used as the EC mitogen in most studies of the studies described herein, identical results were obtained using VEGF.

[6] = tested on: proliferating ECs; assay: Assessment of EC apoptosis (DAPI, TUNEL, DNA cleavage); type: cell-based, human
Method: Assessment of EC apoptosis. The effect of TM-311 on HKa- or HKa D5-induced EC apoptosis was determined using several methods. First, staining of control or HKa exposed ECs using 4′, 6′-diamidino-2-phenylindole dihydrochloride (DAPI) (Molecular Probes, Eugene Oreg.) was employed to highlight apoptosis-associated changes in nuclear morphology. Second, apoptosis was assessed by TUNEL staining, using the Apo-Direct kit (Pharmingen, San Diego, Calif.). Cells were counterstained with propidium iodide to define all nuclei, and the percentage of apoptotic CUNEL positive) nuclei determined by manual counting. Finally, to assess endothelial apoptosis by endonucleolytic cleavage of DNA, EC DNA was isolated and separated using 0.8% agarose gel electrophoresis. Gels were stained with ethidium bromide, and DNA visualized using UV light.

B1: HKa: Two-chain high molecular weight kininogen, purchased from Enzyme Research Laboratories (protein)
chain 1: QESQSEEIDCNDKDLFKAVDAALKKYNSQNQSNNQFVLYRITEATKTVGSDTFYSFKYEIKEGDCPVQSGKTWQDCEYKDAAKAATGECTATVGKRSSTKFSVATQTCQITPAEGPVVTAQYDCLGCVHPISTQSPDLEPILRHGIQYFNNNTQHSSLFMLNEVKRAQRQVVAGLNFRITYSIVQTNCSKENFLFLTPDCKSLWNGDTGECTDNAYIDIQLRIASFSQNCDIYPGKDFVQPPTKICVGCPRDIPTNSPELEETLTHTITKLNAENNATFYFKIDNVKKARVQVVAGKKYFIDFVARETTCSKESNEELTESCETKKLGQSLDCNAEVYVVPWEKKIYPTVNCQPLGMISLMK
chain 2: SSRIGEIKEETTVSPPHTSMAPAQDEERDSGKEQGHTRRHDWGHEKQRKHNLGHGHKHERDQGHGHQRGHGLGHGHEQQHGLGHGHKFKLDDDLEHQGGHVLDHGHKHKHGHGHGKHKNKGKKNGKHNGWKTEHLASSSEDSTTPSAQTQEKTEGPTPIPSLAKPGVTVTFSDFQDSDLIATMMPPISPAPIQSDDDWIPDIQTDPNGLSFNPISDFPDTTSPKCPGRPWKSVSEINPTTQMKESYYFDLTDGLS
Kd [1]: ~2.6 nM and ~2.5 nM | Kd [2]: ~2.5 nM and ~2.6 nM | inhibition of angiogenesis induced by bFGF-containing filter discs, vessel counts ([3]; 30 ng bFGF, 10 μg HKa): about 85% | inhibition of bFGF-induced angiogenesis in the CAM (in words) ([3]; in vivo): inhibited basic FGF-induced angiogenesis; also recorded: antiangiogenic activity | Kd [4]: ~1 nM | inhibition of bFGF-induced EC proliferation (in words) [5]: inhibition | induction of EC apoptosis (in words) [6]: induction of EC apoptosis
